This is an account of results in a protein production outcome set (Wang et al. 2014).

The nature of this data set: label from the status in PepcDB records.

On to “MGSKNESTASKASGTASEKKKIEYLDKTYEVTVPTDKIAITGSVESMEDAKLLDVHPQGAISFSGKFPDMFKDITDKAEPTGEKMEPNIEKILEMKPDVILASTKFPEKTLQKISTAGTTIPVSHISSNWKENMMLLAQLTGKEKKAKKIIADYEQDLKEIKTKINDKAKDSKALVIRIRQGNIYIYPEQVYFNSTLYGDLGLKAPNEVKAAKAQELSSLEKLSEMNPDHIFVQFSDDENADKPDALKDLEKNPIWKSLKAVKEDHVYVNSVDPLAQGGTAWSKVRFLKAAAEKLTQNLEHHHHHH”, for which the protein production entry was “not failed”.
In the case of “MGSPKVEDTLISDAQIEEAKQDGTTTAVYVIARNSGEFADRLDAEGDYQLWSNEEENLKKVVANFDNVIVVLNVGGIIDTKFFHEIEGLDSLLLMSQAGMRGGDAVVKVLNGEVTPSGKLTDTWAVNYEDYSSSETFGKNDVNTTQEDYTDDIYVGYRYFDTFNVTPAYEFGYGLSYTDFNIDVKDVTVDEENVTVDVKVTNVGKQYSGKEVVEVYFSAPDGALEKPYQELATYGKTDTLAPGESQTLTLSYATTEMSAYSEDLAAYVMEDGDYLVRVGNSSRNTSVEAVINLDSNKVTEQLSNQMVQDEEIDTLSNEGATPYTYEGEAEEIAKAERFELDANAIETVNNASEYDDESVISYVYEGSDYTVVDQEANPRYTKAPSGNNTTPSQLIEPYEETIQYVEKTKENPTLLDVYQGTVTMEELLASLSVEEMSNIVEGLGWGGGSEPIIGAQANSVKGAAGETTSKYYETRAIPNTVLADGPAGIRITQSYEEDGTTYYQYCTAFPIGTLIAQSWDKDVAKQFGEAIGEEMLEMGVTMWLAPGMNIHRNPLCGRNFEYYSEDPLVAGVTAASTTLGVQSHEGIGVTLKHYAANNQEDNRNAVNNTITERALREIYLKGFEIAVKTANPMALMTCYNLNNAMPGADDYDLCTDIPRGEWGFNGLIMTDWGGGQSTPVNSMHAGNDLIMPGGSSKSIAEATGVTLPLGDLQKATRNVLNVIMDSTQFKKIGVENGVEVEIGKFTESAGLGLFLDVTKSEVTSVNKTALQIAVDVASNIADEELENVVPAVANELKAALEEAKAILEDATAEQETVDASFDRLATAIQMLDFIKGDKAALRSFITKVENTVEEEYTPATWTAFAAALGTGNTVLANENAMQEEVDNAYTNLVKAYLNLRLVPNKDKLEDLINQTKALVAANYTADTWKNVSDALVLAENVMSNENATSEEVANAETVLTKAVEGLVVNNTPVTPSTPAVDNTVDSTVKTPVNSGDTTASVKTGDESLTGLFGGITLLSLAGAVLLKRKEN”, the protein production entry was “failed”.
For “MGSSHHHHHHSSGLVPRGSHDSAQSDLKEVMVLNATESFVYEPKEQKKMFHATVATENEVFRVKVFNIDLKEKFTPKKIIAIANYVCRNGFLEVYPFTLVADVNADRNMEIPKGLIRSASVTPKINQLCSQTKGSFVNGVFEVHKKNVRGEFTYYEIQDNTGKMEVVVHGRLTTINCEEGDKLKLTCFELAPKSGNTGELRSVIHSHIKVIKTRK”, the protein production result is on record as “not failed”.
The result for “MGSSHHHHHHSSGLVPRGSHMGKEYFLKVALREAKRAFEKGEVPVGAIIVKEGEIISKAHNSVEELKDPTAHAEMLAIKEACRRLNTKYLEGCELYVTLEPCIMCSYALVLSRIEKVIFSALDKKHGGVVSVFNILDEPTLNHRVKWEYYPLEEASELLSEFFKKLRNNII” reads “not failed”.
Take “MGSSHHHHHHSSGRENLYFQGMKEVEKNEIKRLSDRLDAIRHQQADLSLVEAADKYAELEKEKATLEAEIARLREVHSQKLSKEAQKLMKMPFQRAITKKEQADMGKLKKSVRGLVVVHPMTALGREMGLEEMTGFSKTTF”: the protein production result is “not failed”.
The result for “MGSTFFGRPNVVGSSPPSSSPTSSSSSPATRRGKKNGSEKPKQPQRGLGVAQLEKIRLHGEMSCNSFNSYNPSLYPQVTYTNTSLHNRDSDPKASKLIKTRYICV” reads “failed”; that for “MGSVLVDLQIATENIEGLPTEEQIVQWATGAVQPEGNEVEMTVRIVDEAESHELNLTYRGKDRPTNVLSFPFECPDEVELPLLGDLVICRQVVEREASEQEKPLMAHWAHMVVHGSLHLLGYDHIEDDEAEEMESLETQIMQGLGFDDPYLAEK”, “not failed”.
